Measured values published in IntAct's records for PubMed 31515488.

B1: Septin-12 (Homo sapiens), Q8IYM1 (parent)
chain: MDPLRRSPSPCLSSQPSSPSTPPCEMLGPVGIEAVLDQLKIKAMKMGFEFNIMVVGQSGLGKSTMVNTLFKSKVWKSNPPGLGVPTPQTLQLHSLTHVIEEKGVKLKLTVTDTPGFGDQINNDNCWDPILGYINEQYEQYLQEEILITRQRHIPDTRVHCCVYFVPPTGHCLRPLDIEFLQRLCRTVNVVPVIARADSLTMEEREAFRRRIQQNLRTHCIDVYPQMCFDEDINDKILNSKLRDRIPFAVVGADQEHLVNGRCVLGRKTKWGIIEVENMAHCEFPLLRDLLIRSHLQDLKDITHNIHYENYRVIRLNESHLLPRGPGWVNLAPASPGQLTTPRTFKVCRGAHDDSDDEF
partner: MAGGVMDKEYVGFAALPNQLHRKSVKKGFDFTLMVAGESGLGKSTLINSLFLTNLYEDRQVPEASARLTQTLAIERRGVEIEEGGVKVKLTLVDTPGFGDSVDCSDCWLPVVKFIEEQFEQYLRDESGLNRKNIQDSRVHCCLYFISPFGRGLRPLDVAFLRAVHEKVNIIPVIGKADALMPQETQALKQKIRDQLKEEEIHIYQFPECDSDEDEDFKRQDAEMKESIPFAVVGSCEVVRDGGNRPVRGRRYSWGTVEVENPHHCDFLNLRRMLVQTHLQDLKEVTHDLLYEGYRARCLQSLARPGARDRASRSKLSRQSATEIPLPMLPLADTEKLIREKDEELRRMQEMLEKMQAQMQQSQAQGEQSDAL

Variants of: B1
Details: with sept1_human SEPTIN1, Q8WYJ6

| Variant | effect of a mutation on the interaction |
| --- | --- |
| MDPLRRSPSPCLSSQPSSPSTPPCEMLGPVGIEAVLDQLKIKAMKMGFEFNIMVVGQSGLGKSTMVNTLFKSKVWKSNPPGLGVPTPQTLQLHSLTHVIEEKGVKLKLTVMDTPGFGDQINNDNCWDPILGYINEQYEQYLQEEILITRQRHIPDTRVHCCVYFVPPTGHCLRPLDIEFLQRLCRTVNVVPVIARADSLTMEEREAFRRRIQQNLRTHCIDVYPQMCFDEDINDKILNSKLRDRIPFAVVGADQEHLVNGRCVLGRKTKWGIIEVENMAHCEFPLLRDLLIRSHLQDLKDITHNIHYENYRVIRLNESHLLPRGPGWVNLAPASPGQLTTPRTFKVCRGAHDDSDDEF [T111M] | disrupting interaction strength |
| MDPLRRSPSPCLSSQPSSPSTPPCEMLGPVGIEAVLDQLKIKAMKMGFEFNIMVVGQSGLGKSTMVNTLFKSKVWKSNPPGLGVPTPQTLQLHSLTHVIEEKGVKLKLTVTDTPGFGDQINNDNCWDPILGYINEQYEQYLQEEILITRQRHIPDTRVHCCMYFVPPTGHCLRPLDIEFLQRLCRTVNVVPVIARADSLTMEEREAFRRRIQQNLRTHCIDVYPQMCFDEDINDKILNSKLRDRIPFAVVGADQEHLVNGRCVLGRKTKWGIIEVENMAHCEFPLLRDLLIRSHLQDLKDITHNIHYENYRVIRLNESHLLPRGPGWVNLAPASPGQLTTPRTFKVCRGAHDDSDDEF [V162M] | disrupting interaction strength |

The next lines start with the values.

| effect of a mutation on the interaction | Variant |
| --- | --- |
| disrupting interaction strength | MDPLRRSPSPCLSSQPSSPSTPPCEMLGPVGIEAVLDQLKIKAMKMGFEFNIMVVGQSGLGKSTMVNTLFKSKVWKSNPPGLGVPTPQTLQLHSLTHVIEEKGVKLKLTVKDTPGFGDQINNDNCWDPILGYINEQYEQYLQEEILITRQRHIPDTRVHCCVYFVPPTGHCLRPLDIEFLQRLCRTVNVVPVIARADSLTMEEREAFRRRIQQNLRTHCIDVYPQMCFDEDINDKILNSKLRDRIPFAVVGADQEHLVNGRCVLGRKTKWGIIEVENMAHCEFPLLRDLLIRSHLQDLKDITHNIHYENYRVIRLNESHLLPRGPGWVNLAPASPGQLTTPRTFKVCRGAHDDSDDEF [T111K] |
| disrupting interaction strength | MDPLRRSPSPCLSSQPSSPSTPPCEMLGPVGIEAVLDQLKIKAMKMGFEFNIMVVGQSGLGKSTMVNTLFKSKVWKSNPPGLGVPTPQTLQLHSLTHVIEEKGVKLKLTVTDTPGFGDQINNDNCWDPILGYINEQYEQYLQEEILITRQRHIPDTRVHCCVYFVPPTGHCLRPLDIEFLQRLCRTVNVVPVIARADSLTMEEQEAFRRRIQQNLRTHCIDVYPQMCFDEDINDKILNSKLRDRIPFAVVGADQEHLVNGRCVLGRKTKWGIIEVENMAHCEFPLLRDLLIRSHLQDLKDITHNIHYENYRVIRLNESHLLPRGPGWVNLAPASPGQLTTPRTFKVCRGAHDDSDDEF [R204Q] |
| with no effect | MDPLRRSPSPCLSSQPSSPSTPPCEMLGPVGIEAVLDQLKIKAMKMGFEFNIMVVGQSGLGKSTMVNTLFKSKVWKSNPPGLGVPTPQTLQLHSLTHVIEEKGVKLKLTVTDTPGFGDQINNDNCWDPILGYINEQYEQYLQEEILITRQRHIPDTRVHCCVYFVPPTGHCLRPLDIEFLQRLSRTVNVVPVIARADSLTMEEREAFRRRIQQNLRTHCIDVYPQMCFDEDINDKILNSKLRDRIPFAVVGADQEHLVNGRCVLGRKTKWGIIEVENMAHCEFPLLRDLLIRSHLQDLKDITHNIHYENYRVIRLNESHLLPRGPGWVNLAPASPGQLTTPRTFKVCRGAHDDSDDEF [C184S] |
| disrupting interaction strength | MDPLRRSPSPCLSSQPSSPSTPPCEMLGPVGIEAVLDQLKIKAMKMGFEFNIMVVGQSGLGKSTMVNTLFKSNVWKSNPPGLGVPTPQTLQLHSLTHVIEEKGVKLKLTVTDTPGFGDQINNDNCWDPILGYINEQYEQYLQEEILITRQRHIPDTRVHCCVYFVPPTGHCLRPLDIEFLQRLCRTVNVVPVIARADSLTMEEREAFRRRIQQNLRTHCIDVYPQMCFDEDINDKILNSKLRDRIPFAVVGADQEHLVNGRCVLGRKTKWGIIEVENMAHCEFPLLRDLLIRSHLQDLKDITHNIHYENYRVIRLNESHLLPRGPGWVNLAPASPGQLTTPRTFKVCRGAHDDSDDEF [K73N] |

Variants of: B1
Details: with sept1_human SEPTIN1, Q8WYJ6
Remark: another data set of the same source

| effect of a mutation on the interaction | Variant |
| --- | --- |
| disrupting interaction strength | MDPLRRSPSPCLSSQPSSPSTPPCEMLGPVGIEAVLDQLKIKAMKMGFEFNIMVVGQSGLGKSTMVNTLFKSKVWKSNPPGLGVPTPQTLQLHSLTHVIEEKGVKLKLTVTDTPGFGDQINNDNCWDPILGYINEQYEQYLQEEILITRQRHIPDTRVHCCVYFVPPTGHCLRPLDIEFLQRLCRTVNVVPVIARANSLTMEEREAFRRRIQQNLRTHCIDVYPQMCFDEDINDKILNSKLRDRIPFAVVGADQEHLVNGRCVLGRKTKWGIIEVENMAHCEFPLLRDLLIRSHLQDLKDITHNIHYENYRVIRLNESHLLPRGPGWVNLAPASPGQLTTPRTFKVCRGAHDDSDDEF [D197N] |
| disrupting interaction strength | MDPLRRSPSPCLSSQPSSPSTPPCEMLGPVGIEAVLDQLKIKAMKMGFEFNIMVVGQSGLGKSTMVNTLFKSKVWKSNPPGLGVPTPQTLQLHSLTHVIEEKGVKLKLTVTDTPGFGDQINNDNCWDPILGYINEQYEQYLQEEILITRQRHIPDTRVHCCVYFVPPTEHCLRPLDIEFLQRLCRTVNVVPVIARADSLTMEEREAFRRRIQQNLRTHCIDVYPQMCFDEDINDKILNSKLRDRIPFAVVGADQEHLVNGRCVLGRKTKWGIIEVENMAHCEFPLLRDLLIRSHLQDLKDITHNIHYENYRVIRLNESHLLPRGPGWVNLAPASPGQLTTPRTFKVCRGAHDDSDDEF [G169E] |
